B1: THSC20.HVTR04 (antibody, V domains shown)
VH: QVQLVESGGGVVQPGRSLRLSCAASGFTFSNYAIHWVRQAPGKGLEWVAVVSYDGSNKYYAESVKGRFTISRDNSKNTLSLQMISLRPEDTAVYYCASVADTAMVPEWYFDLWGRGTLVTVSS
VL: QSVLTQPRSVSGSPGQSVTISCTGTSSDVGAYNYVSWYQQHPGKAPKLMIYDVSARPSGVPDRFSGSKSGNTASLTISGLQAEDEADYYCCSYAGSWVFGGGTKLTVL
B2: THSC20.HVTR26 (antibody, V domains shown)
VH: EVQLVESGGGLVQPGGSLRLSCAASGFTVSSNYMSWVRQAPGKGLEWVSAIYSGDSTYYADSVKGRFTISRHNPKNTLYLQMNSLRAEDTAVYYCARLVGALTNIVVSGDGGAFDIWGQGTMVTVSS
VL: SYELTQPASVSGSPGQSITISCTGTSSDVGSYNLVSWYQQHPGKAPKLMIYEVSKRPSGVSNRFSGSKSGNTASLTISGLQAEDEVDYYCCSYAGSSTWVFGGGTKLTVL
B3: THSC20.HVTR55 (antibody, V domains shown)
VH: EVQLVQSGAEVKKPGESLRISCKGSGFRFTNYWIGWVRQMPGKGLEWMGIIYPGDSDTRYSPSFQGQVTISADKSLSTAYLQWSSLQASDTAIYYCARRDRWELDPLDYWGQGTLVTVSS
VL: DIVMTQSPSTLSASVGDRVTITCRASQSISSWLAWYQQKPGKAPNLLIYKASSLESGVPSRFSGSGSGTEFTLTISGLQPDDFATYYCQHYNGYPYTFGQGTKLEIK
B4: THSC20.HVTR06 (antibody, V domains shown)
VH: QLQLVQSGSELKKPGASVKVSCKASGYTFTKYTVNWVRQAPGQGLEWMGWINTNTGNPTSAQGFTGRFVFSLDTSVSTAYLHISSLKTEDTAVYYCARVLGDQQVVGGDDYYYYYAMDVWGQGTPVTVSS
VL: SYELTQPPSVSVSPGQTASITCSGDKLGDKYASWYQQKPGQSPVLVIYQDTKRPSGIPERFSGSNSGNTATLTITGTQAMDETDYYCQAWDNSGWVFGGGTKLTVL
B5: THSC20.HVTR88 (antibody, V domains shown)
VH: QVQLVQSGAEVKKPGASVKVSCKASGYPFTSYVISWVRQAPGQGLEWMGWISAYNGNTDYAQKLQGRVTMTTDTSTSTAYMELRSLRSDDTAVYYCAREGKYSSGWSYSEYFDYWGQGTLVTVSS
VL: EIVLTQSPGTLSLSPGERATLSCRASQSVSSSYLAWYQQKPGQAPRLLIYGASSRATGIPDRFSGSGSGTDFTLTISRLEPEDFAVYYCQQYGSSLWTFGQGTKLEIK
B6: THSC20.HVTR39 (antibody, V domains shown)
V domain 1: QVQLQESGPGLVRPSETLSLTCIVSGGSINSRSYSWGWIRQPPGKGLEWIGNVYYSGTTYYNPSLKSRVTISVDTSKNQFSLNLSSVTAADTAVYYCARNLFYYDRSGSSHHDAFDIWGQGTMVTVSS
V domain 2: HGYVRPLSVAPGQTARITCGGNNIGSKSVHWYQQKPGQAPVLVVYGDGDRPSGIPERFSGSNSGNTATLTISRVEAGDEADYYCQVWDRGSDVWVFG
B7: THSC20.HVTR11 (antibody, V domains shown)
VH: EVQLVQSGAEVKKPGSSVKVSCKASGGTFSSYTISWVRQAPGQGLEWMGRIIPILGIANYAQKFQGRVTITADKSTSTACMELSSLRSEDTAVYFCARIRGYSGYGSSYYFDYWGQGTLVTVSS
VL: QSVLTQPPSVSGAPGQRVTISCTGSSSNIGAGYDVHWYQQLPGTAPKLLIYGNSNRPSGVPDRFSGSKSGTSASLAITGLQAEDEADYYCQSYDSSLSHEVFGGGTKLTVL

What follows are binders tested against T1, Biotinylated wild type SARS-CoV-2 receptor binding domain (RBD) antigen (SARS-CoV-2, Wuhan isolate (wild type), UniProt P0DTC2 319-541).

Binder | Kd
B1 | 0.19 nM
B2 | 0.22 nM

Molecular target: T1, Biotinylated wild type SARS-CoV-2 …
Remark: another data set of the same source

Binder | Kd | koff | kon
B3 | < 0.001 nM | < 1e-07 s⁻¹ | 
B4 | 0.635 nM |  | 
B1 | 0.196 nM |  | 
B5 | 0.427 nM |  | 
B2 | 0.255 nM |  | 
B6 | 0.513 nM |  | 
B7 | < 0.001 nM | < 1e-07 s⁻¹ | 103000 M⁻¹ s⁻¹

From US20250296985A1 (TRANSLATIONAL HEALTH SCIENCE AND TECHNOLOGY INSTITUTE, published 2025)
